# Laboratory results taken from article PMC7505474, “Toll-like receptor 4-mediated inflammation triggered by extracellular IFI16 is enhanced by lipopolysaccharide binding” (PLoS Pathogens, 2020).
# Experiments:
# [1] = target: T1, Recombinant TLR4/MD2 complex (R&D Systems 3146-TM-050/CF) (UniProt O00206 24-631; Q9Y6Y9 19-160); assay: SPR; Biacore X100; TLR4/MD2 complex immobilised on a CM5 chip by amine coupling (1,223.9 RU); analyte is IFI16 pre-complexed with LPS-EB (IFI16/LPS-EB complex), 31.25-1,000 nM, 30 μl/min, 25°C, HBS-EP+ buffer; association 120 s, dissociation 180 s; 1:1 binding model; settings: both partners purified
# T1 construct: Toll-like receptor 4 chain of the bought recombinant TLR4/MD2 complex; neither species nor construct limits are stated; MD2 (lymphocyte antigen 96) chain of the bought recombinant TLR4/MD2 complex; also called TLR4/MD2 receptor; source: bought: R&D Systems
# T1 sequence (O00206 24-631, chain 1 of 2): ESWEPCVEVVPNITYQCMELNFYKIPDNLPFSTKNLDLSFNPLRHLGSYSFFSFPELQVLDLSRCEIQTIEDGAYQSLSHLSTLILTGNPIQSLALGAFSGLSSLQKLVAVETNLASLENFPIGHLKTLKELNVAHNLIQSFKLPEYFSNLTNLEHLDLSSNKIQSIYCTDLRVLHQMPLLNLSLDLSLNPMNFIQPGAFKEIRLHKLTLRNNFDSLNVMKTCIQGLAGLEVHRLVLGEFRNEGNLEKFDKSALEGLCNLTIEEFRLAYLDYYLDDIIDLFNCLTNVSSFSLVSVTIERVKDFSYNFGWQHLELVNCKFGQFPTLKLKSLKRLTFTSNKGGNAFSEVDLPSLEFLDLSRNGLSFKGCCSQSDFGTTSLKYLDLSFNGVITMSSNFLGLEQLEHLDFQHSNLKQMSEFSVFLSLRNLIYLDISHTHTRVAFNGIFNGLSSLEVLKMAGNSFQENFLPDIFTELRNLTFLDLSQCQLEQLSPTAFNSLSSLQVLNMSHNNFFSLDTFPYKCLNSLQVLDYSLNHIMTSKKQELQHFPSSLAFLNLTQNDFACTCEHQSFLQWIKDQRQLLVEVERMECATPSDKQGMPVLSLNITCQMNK
# T1 sequence (Q9Y6Y9 19-160, chain 2 of 2): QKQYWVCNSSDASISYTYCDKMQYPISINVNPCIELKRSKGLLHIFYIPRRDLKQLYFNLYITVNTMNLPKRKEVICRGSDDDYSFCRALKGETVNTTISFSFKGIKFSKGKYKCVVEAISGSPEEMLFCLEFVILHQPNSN
# [2] = target: T1, Recombinant TLR4/MD2 complex (R&D …); assay: SPR; Biacore X100; TLR4/MD2 complex immobilised on a CM5 chip by amine coupling (1,223.9 RU); IFI16 alone 31.25-1,000 nM flowed at 30 μl/min, 25°C, HBS-EP+ buffer; association 120 s, dissociation 180 s; 1:1 binding model; settings: both partners purified
binder,measurement,setting,value
"human recombinant IFI16 protein (natural protein, UniProt Q16666-2 1-729, looked up, IFI16, human, full-length recombinant protein; The domains were cloned in pET30a and made 'following the same procedure as that for the full-length protein'; In assay a3 and in part of a4 the protein was pre-incubated O/N at 4°C with LPS-EB, which is not a protein; also called full-length IFI16; endotoxin-free IFI16; source: recombinant, produced as previously described [24], purified, endotoxins …) MGKKYKNIVLLKGLEVINDYHFRMVKSLLSNDLKLNLKMREEYDKIQIADLMEEKFRGDAGLGKLIKIFEDIPTLEDLAETLKKEKLKVKGPALSRKRKKEVDATSPAPSTSSTVKTEGAEATPGAQKRKKSTKEKAGPKGSKVSEEQTQPPSPAGAGMSTAMGRSPSPKTSLSAPPNSSSTENPKTVAKCQVTPRRNVLQKRPVIVKVLSTTKPFEYETPEMEKKIMFHATVATQTQFFHVKVLNTSLKEKFNGKKIIIISDYLEYDSLLEVNEESTVSEAGPNQTFEVPNKIINRAKETLKIDILHKQASGNIVYGVFMLHKKTVNQKTTIYEIQDDRGKMDVVGTGQCHNIPCEEGDKLQLFCFRLRKKNQMSKLISEMHSFIQIKKKTNPRNNDPKSMKLPQEQRQLPYPSEASTTFPESHLRTPQMPPTTPSSSFFTKKSEDTISKMNDFMRMQILKEGSHFPGPFMTSIGPAESHPHTPQMPPSTPSSSFLTTLKPRLKTEPEEVSIEDSAQSDLKEVMVLNATESFVYEPKEQKKMFHATVATENEVFRVKVFNIDLKEKFTPKKIIAIANYVCRNGFLEVYPFTLVADVNADRNMEIPKGLIRSASVTPKINQLCSQTKGSFVNGVFEVHKKNVRGEFTYYEIQDNTGKMEVVVHGRLTTINCEEGDKLKLTCFELAPKSGNTGELRSVIHSHIKVIKTRKNKKDILNPDSSMETSPDFFF",Kd,[1],4010 nM
same,koff,[1],0.0143 s⁻¹
same,kon,[1],3570 M⁻¹ s⁻¹
same,Kd,[2],677 nM
same,koff,[2],0.00614 s⁻¹
same,kon,[2],9070 M⁻¹ s⁻¹
